Measured values from the supplement of paper PMC11908140.

B1: library; numbered along this chain (parent)
chain: MRKPRAAVGSGHRKQAASQEGRQKHAKNNSQAKPSACDGLARQPEEVVLQASVSSYHLFRDVAEVTAFRGSLLSWYDQEKRDLPWRRRAEDEMDLDRRAYAVWVSEVMLQQTQVATVINYYTGWMQKWPTLQDLASASLEEVNQLWAGLGYYSRGRRLQEGARKVVEELGGHMPRTAETLQQLLPGVGRYTAGAIASIAFGQATGVVDGNVARVLCRVRAIGADPSSTLVSQQLWGLAQQLVDPARPGDFNQAAMELGATVCTPQRPLCSQCPVESLCRARQRVEQEQLLASGSLSGSPDVEECAPNTGQCHLCLPPSEPWDQTLGVVNFPRKASRKPPREESSATCVLEQPGALGAQILLVQRPNSGLLAGLWEFPSVTWEPSEQLQRKALLQELQRWAGPLPATHLRHLGEVVHTFSHIKLTYQVYGLALEGQTPVTTVPPGARWLTQEEFHTAAVSTAMKKVFRVYQGQQPGTCMGSKRSQVSSPCSRKKPRMGQQVLDNFFRSHISTDAHSLNSAAQ

Variants of: B1
Assay: 8OG:A repair function score (normalized; synonymous = 0, nonsense = -1) (normalized log-likelihood score); higher = more repair activity (WT-like)
Conditions: with 8OG:A DNA repair reporter (GFP) in HEK-293 MUTYH KO cells
Procedure, shortened: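 After 72 h, viable mCherry+ cells were split into GFP+ (repair) and GFP− bins in three replicates per tile. These cells were MUTYH knockout HEK-293 cells holding lentiviral MUTYH cDNA NNN codon-scan libraries, kept in 10 pg/ml doxycycline and co-transfected with mCherry plus an 8OG:A GFP repair reporter. Sequencing of tile amplicons gave per-tile Rosace fitness scores, normalized into a repair function score anchored on synonymous and nonsense distributions. Synonymous medians were fixed at 0, nonsense at -1, and variants under 300 counts per million at the start were removed.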
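Note: cells sorted at 72 h after reporter transfection.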

Variant | 8OG:A repair function score
G497M | -0.0577
P264S | -0.0872
P264L | -0.0962
P264Y | -0.087
S344H | 0.0531
S344L | 0.00107
S298N | -0.0213
D133G | 0.0336
R389E | -0.116
V485A | -0.00727
V485P | -0.0106
A63C | -0.0141
D249F | -0.75
W374R | -1.03
W374M | 0.217
N329S | -0.235
I118M | -0.277
A41F | 0.0355
S52A | 0.00623
L184W | -1.13
A400K | -0.458
L215H | -0.901
H410S | -0.169
E79F | 0.000542

Variant | 8OG:A repair function score
G471H | 0.00339
G471Y | 0.0198
G471E | -0.0561
N307L | -0.079
H454S | -0.168
H454D | -0.376
S138R | 0.0347
R446F | -0.449
P339W | -0.126
A115I | -0.0495
N366T | -0.00609
R340F | -0.491
R340V | -0.304
R340H | -0.253
R340L | -0.211
G297K | 0.0192
G170W | -0.239
M255Y | -1.02
T260N | -0.111
T260H | -0.293
A259F | -0.503
S378I | -0.143
E141V | -0.27
M173R | -1.15

Variant | 8OG:A repair function score
M173V | -0.0935
G222F | -0.564
G222C | -0.509
K80M | -0.162
L58N | 0.00327
E285S | 0.0138
V102Y | -1.01
V242C | -0.39
A354F | -0.0389
T263A | -0.167
D512S | -0.0201
R97G | -0.0171
E106W | -1.04
E106G | -1.3
E178Q | -0.0318
V414I | -0.137
K464L | -0.298
Q388C | -0.459
Q388M | -0.052
A461T | -0.23
R98W | -0.0663
C269E | -1.16
G444C | -0.242
G444D | -0.275

Variant | 8OG:A repair function score
V230Q | -0.787
L229E | -0.064
I421Y | -0.435
L237Q | -0.281
G150L | -1.18
D82S | -0.0969
E385T | -0.24
E385A | 0.0147
Q288I | -0.0801
Q288E | -0.0177
Y56H | -0.00595
V500K | -0.0181
E45H | 0.0965
P317F | -0.125
T228N | -0.0359
L448K | -0.743
V53L | -0.024
G434H | -0.0472
G434P | -0.0275
R281P | -0.443
Y151N | -1.33
V117W | -0.737
V117F | -1.21
R336A | -0.0267

Variant | 8OG:A repair function score
R336W | -0.0779
Y190A | -0.38
R189I | -0.335
A291L | -0.0339
P185I | -0.275
M496R | 0.0258
R156D | -0.477
P488T | 0.00629
D322K | 0.00699
V468R | -0.101
V441K | -0.215
P316F | -0.198
Q473I | -0.0484
K337L | -0.136
W447V | -0.846
S480T | 0.0286
G248V | -0.998
L72F | -1.08
A456R | -0.498
S459K | -1.03
P247S | -0.584
G429N | -0.133
Y469M | -0.259
D96P | -0.177

Variant | 8OG:A repair function score
E342N | 0.0275
S292M | -0.0481
V207D | -0.986
C489K | -0.0226
P174G | -0.814
P443M | 0.0448
G479C | -0.0498
V284E | -0.033
R69C | -0.33
T476S | 0.00281
A253V | -1
A253H | -1.03
A457F | -0.356
P299Q | -0.00604
T417M | 0.321
K492D | -0.0117
K492H | -0.0225
E375F | -0.673
A89M | 0.00504
L387D | 0.259
R409Q | -0.332
E433K | -0.0112
L158S | -1.05
Q239N | 0.162

Variant | 8OG:A repair function score
L95W | -0.127
A445H | -0.71
A101D | -0.0136
V327Q | -0.4
V327C | -0.201
E382Y | 0.217
M108P | -1.2
V274Q | -0.544
E287A | -0.017
R157S | -0.182
R157C | -0.297
A203I | 0.0319
V165Q | -0.882
V165K | -1.13
P267R | -1.04
C311R | -0.481
E256V | -1.14
E256L | -0.906
S226H | 0.0371
S226K | 0.026
L393M | 0.297
S486A | 0.00239
R213E | -1.03
